Results as given in FireProtDB (doi:10.1016/j.jmb.2008.02.039).

Details: Thermococcus kodakarensis (strain ATCC BAA-918 / JCM 12380 / KOD1); pH 9; 50 °C; GdnHCl; CD; Tris-HCl 20 mM; reversible: Yes; whole UniProt chain shown

B1: Ribonuclease HII wild type, O74035 (protein)
chain: MKIAGIDEAGRGPVIGPMVIAAVVVDENSLPKLEELKVRDSKKLTPKRREKLFNEILGVLDDYVILELPPDVIGSREGTLNEFEVENFAKALNSLKVKPDVIYADAADVDEERFARELGERLNFEAEVVAKHKADDIFPVVSAASILAKVTRDRAVEKLKEEYGEIGSGYPSDPRTRAFLENYYREHGEFPPIVRKGWKTLKKIAEKVESEKKAEERQATLDRYFRKV
  denaturant m value: 5.64 kcal/mol/M
  denaturant midpoint (higher = more stable): 1.85 M
  unfolding free energy: 10.4 kcal/mol
